Assay results taken from PMC3596305, “Escherichia coli NemA Is an Efficient Chromate Reductase That Can Be Biologically Immobilized to Provide a Cell Free System for Remediation of Hexavalent Chromium” (PLoS ONE, 2013).

system: [O]=[Cr](=[O])([OH])[OH]; assay: purified protein; conditions: 1 mM NADH, 50 mM Tris-Cl pH 7.0, 22°C

Substance | Km | kcat | kcat/Km
ChrR_St (Salmonella enterica subsp. enterica serovar Typhi) | 37 ± 2 µM | 0.031 s⁻¹ | 830 M⁻¹ s⁻¹
NfsA_St (Salmonella enterica subsp. enterica serovar Typhi) | 180 µM | 0.02 s⁻¹ | 140 M⁻¹ s⁻¹
NfsB_St (Salmonella enterica subsp. enterica serovar Typhi) | 320 ± 120 µM | 0.54 s⁻¹ | 1700 M⁻¹ s⁻¹
